Consider 6 substances from patent US7083949.

Some targets named below: human IL-6 (human) (UniProt P05231); human IL-13 (human) (UniProt P35225); human IL-4 (human) (UniProt P05112).
Test in all cases: cell-based or functional assay
Assay [1] deals with recombinant human IL-13 (E. coli) (human) (UniProt P35225).
Assay [2] addresses recombinant human IL-1 (human).

Sequence of human IL-13 (human) (P35225 35-146 limits assumed): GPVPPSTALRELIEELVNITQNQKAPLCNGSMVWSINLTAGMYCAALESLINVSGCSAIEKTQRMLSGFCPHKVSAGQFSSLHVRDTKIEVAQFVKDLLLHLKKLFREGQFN
Sequence of human IL-4 (human) (P05112 25-153 limits assumed): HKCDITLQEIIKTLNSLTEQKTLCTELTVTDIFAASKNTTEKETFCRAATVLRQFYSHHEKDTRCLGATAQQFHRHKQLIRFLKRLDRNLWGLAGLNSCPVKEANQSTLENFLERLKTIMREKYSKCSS
Sequence of human IL-6 (human) (P05231 30-212 limits assumed): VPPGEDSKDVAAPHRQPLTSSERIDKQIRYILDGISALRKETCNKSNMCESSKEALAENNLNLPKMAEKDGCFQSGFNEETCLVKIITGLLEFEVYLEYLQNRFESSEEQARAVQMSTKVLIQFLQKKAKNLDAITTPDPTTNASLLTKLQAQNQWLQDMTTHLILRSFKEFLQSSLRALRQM
Sequence of recombinant human IL-13 (E. coli) (human) (P35225 35-146 limits assumed): as the sequence (P35225 35-146 limits assumed) above

Turning to IL-4/IL-13 Trap 1132 (Fc fusion), the IC50, TF1 cell proliferation with 15 pM IL-13 (E. coli; Preprotech), MTS in assay [1] stood at 64 pM.
Regarding human IL-1 Trap (Fc fusion), the serum IL-6 in mice after injection of human IL-1 (in vivo) (fold molar excess) in assay [2] was found to be 150.
For the substance gp130-Fc homodimer (Fc fusion), in the assay with human IL-6 (human), the inhibition of IL-6-dependent proliferation of XG-1 cells (MTT) (fold molar excess over IL-6) is more than 1000.
With IL-4Rα.IL-13Rα1.Fc (Fc fusion), in the assay with human IL-13 (human), the TF1 cell proliferation (MTS); IL-13 concentration at which growth is inhibited by 50% with 10 nM Trap fell in the range of 4 to 5 nM and the TF1 cell proliferation (MTS); highest IL-13 concentration blocked by 10 nM Trap worked out at 2 nM. Moreover, in the assay with human IL-4 (human), the TF1 cell proliferation (MTS); IL-4 concentration at which growth is inhibited by 50% with 10 nM Trap lay in the range of 3 to 4 nM and the TF1 cell proliferation (MTS); highest IL-4 concentration blocked by 10 nM Trap was found to be 1 nM.
For “gp130-Fc-CNTFRα-Fc ligand Trap (Fc fusion)”, the inhibition of IL-6-dependent proliferation of XG-1 cells (MTT) (fold molar excess over IL-6) with human IL-6 (human) is more than 1000.
Regarding IL-13Rα1.IL-4Rα.Fc (Fc fusion), in the assay with human IL-13 (human), the TF1 cell proliferation (MTS); IL-13 concentration at which growth is inhibited by 50% with 10 nM Trap was in the range of 4 to 5 nM and the TF1 cell proliferation (MTS); highest IL-13 concentration blocked by 10 nM Trap was found to be 2 nM. In the assay with human IL-4 (human), the TF1 cell proliferation (MTS); IL-4 concentration at which growth is inhibited by 50% with 10 nM Trap lay in the range of 3 to 4 nM and the TF1 cell proliferation (MTS); highest IL-4 concentration blocked by 10 nM Trap is 1 nM.
